Data taken from paper PMC3394778, “Ubiquitylation of Terminal Deoxynucleotidyltransferase Inhibits Its Activity” (PLoS ONE, 2012).

B1: GST-TdT (terminal deoxynucleotidyltransferase) (natural protein)
chain: MDPLCTASSGPRKKRPRQVGASMASPPHDIKFQNLVLFILEKKMGTTRRNFLMELARRKGFRVENELSDSVTHIVAENNSGSEVLEWLQVQNIRASSQLELLDVSWLIESMGAGKPVEITGKHQLVVRTDYSATPNPGFQKTPPLAVKKISQYACQRKTTLNNYNHIFTDAFEILAENSEFKENEVSYVTFMRAASVLKSLPFTIISMKDTEGIPCLGDKVKCIIEEIIEDGESSEVKAVLNDERYQSFKLFTSVFGVGLKTSEKWFRMGFRSLSKIMSDKTLKFTKMQKAGFLYYEDLVSCVTRAEAEAVGVLVKEAVWAFLPDAFVTMTGGFRRGKKIGHDVDFLITSPGSAEDEEQLLPKVINLWEKKGLLLYYDLVESTFEKFKLPSRQVDTLDHFQKCFLILKLHHQRVDSSKSNQQEGKTWKAIRVDLVMCPYENRAFALLGWTGSRQFERDIRRYATHERKMMLDNHALYDKTKRVFLKAESEEEIFAHLGLDYIEPWERNA
notes: Terminal deoxynucleotidyltransferase (TdT), bovine; cDNA isolated from a bovine thymus cDNA library; wild type; source: E. coli BL21(DE3)pLysS Rosetta2, purified (Glutathione Sepharose 4B)

How the values were obtained:
Settings in all cases: both partners purified
GST-TdT (terminal …) = biological target: B1; assay: pull-down; GST-TdT coupled to Glutathione Sepharose 4B as bait, His-tagged proteins added for 1 h (coupling at 4°C); binding buffer A: 50 mM Tris-HCl pH 7.4, 150 mM NaCl, 2.5 mM MgCl2, 1% TritonX-100, 10% glycerol, 1 mM DTT; immunoblot with anti-His; Figure 2A with or without His-Ub
His-TdT del 2 (150–509) = biological target: T1, His-TdT del 2 (150–509) (bovine, UniProt P06526 150-509); assay: pull-down; GST-UbcH5a coupled to Glutathione Sepharose 4B as bait, His-TdT deletion mutants as prey; binding buffer A: 50 mM Tris-HCl pH 7.4, 150 mM NaCl, 2.5 mM MgCl2, 1% TritonX-100, 10% glycerol, 1 mM DTT; immunoblot with anti-His
T1 construct: also called C-terminal region of TdT; source: E. coli BL21(DE3)pLysS Rosetta2, purified (Ni Sepharose 6 Fast Flow)

His-UbcH5b = biological target: T2, His-UbcH5b (human, UniProt P62837 1-147); assay: pull-down; GST-TdT coupled to Glutathione Sepharose 4B as bait, His-tagged proteins added for 1 h (coupling at 4°C); binding buffer A: 50 mM Tris-HCl pH 7.4, 150 mM NaCl, 2.5 mM MgCl2, 1% TritonX-100, 10% glycerol, 1 mM DTT; immunoblot with anti-His; Figure 2A with or without His-Ub
T2 construct: UbcH5b (E2), human; cDNA amplified from a human thymus cDNA library; also called UbcH5 isoforms; source: E. coli BL21(DE3), purified (Ni Sepharose 6 Fast Flow)

| binding result (GST-TdT (terminal …)) | other results | Binder |
| --- | --- | --- |
| binds |  | His-UbcH5a (wild type) (enzyme, UbcH5a (ubiquitin-conjugating enzyme E2), human; cDNA amplified from a human thymus cDNA library; also called His-wtUbcH5a; wtUbcH5a; source: E. coli BL21(DE3), purified (Ni Sepharose 6 Fast Flow)) not shown |
|  | binding result (His-TdT del 2 (150–509)): binds | GST-UbcH5a (enzyme, UbcH5a (ubiquitin-conjugating enzyme E2), human; cDNA amplified from a human thymus cDNA library; also called GST-Ubc5a; source: E. coli BL21(DE3), purified (Glutathione Sepharose 4B)) not shown |
|  | binding result (His-UbcH5b): binds | B1 |
| binds |  | His-UbcH6 (enzyme, human, UniProt P51965 1-193, looked up, UbcH6 (E2), human; cDNA amplified from a human thymus cDNA library; source: E. coli BL21(DE3), purified (Ni Sepharose 6 Fast Flow)) MSDDDSRASTSSSSSSSSNQQTEKETNTPKKKESKVSMSKNSKLLSTSAKRIQKELADITLDPPPNCSAGPKGDNIYEWRSTILGPPGSVYEGGVFFLDITFTPEYPFKPPKVTFRTRIYHCNINSQGVICLDILKDNWSPALTISKVLLSICSLLTDCNPADPLVGSIATQYMTNRAEHDRMARQWTKRYAT |
| binds |  | His-UbcH10 (enzyme, human, UniProt O00762 1-179, looked up, UbcH10 (E2), human; cDNA amplified from a human thymus cDNA library; source: E. coli BL21(DE3), purified (Ni Sepharose 6 Fast Flow)) MASQNRDPAATSVAAARKGAEPSGGAARGPVGKRLQQELMTLMMSGDKGISAFPESDNLFKWVGTIHGAAGTVYEDLRYKLSLEFPSGYPYNAPTVKFLTPCYHPNVDTQGNICLDILKEKWSALYDVRTILLSIQSLLGEPNIDSPLNTHAAELWKNPTAFKKYLQETYSKQVTSQEP |
| binds |  | Ubc13/MMS2 (His-UbcH13 with His-MMS2) (complex, UbcH13 (Ubc13, E2), human; cDNA amplified from a human thymus cDNA library; MMS2, E2 variant that lacks the active cysteine, human; The two chains were expressed and purified separately; also called UbcH13-MMS2; source: E. coli BL21(DE3), each purified (Ni Sepharose 6 Fast Flow)) chain 1: MAGLPRRIIKETQRLLAEPVPGIKAEPDESNARYFHVVIAGPQDSPFEGGTFKLELFLPEEYPMAAPKVRFMTKIYHPNVDKLGRICLDILKDKWSPALQIRTVLLSIQALLSAPNPDDPLANDVAEQWKTNEAQAIETARAWTRLYAMNNI chain 2: not shown |
